Assay results as given in patent publication US20040197325A1 (PDL BIOPHARMA, published 2004).

What was measured:
[1] = target: T1, GPR64 protein (SEQ ID NO:2) (human, UniProt Q8IZP9 38-1017); test: competitive FACS on H460 cells, confirmed by Biacore
T1 construct: Endogenous GPR64 on human tumor cells (NCI-H460) or in tissue sections; also called Ov1; HE6
Experimental: Epitope mapping was performed by competitive FACS assay. Briefly, H460 cells were incubated with 25 ug/ml unlabeled antibody for 1 hr on ice, at which time various amounts of FITC labeled antibody was added. After 30 additional minutes, cells were washed one time and fluorescence was measured by flow cytometry. All data was confirmed by Biacore.

[2] = target: T2, GPR64 protein (SEQ ID NO:2) (UniProt Q8IZP9 38-1017); test: FACS
T2 chain: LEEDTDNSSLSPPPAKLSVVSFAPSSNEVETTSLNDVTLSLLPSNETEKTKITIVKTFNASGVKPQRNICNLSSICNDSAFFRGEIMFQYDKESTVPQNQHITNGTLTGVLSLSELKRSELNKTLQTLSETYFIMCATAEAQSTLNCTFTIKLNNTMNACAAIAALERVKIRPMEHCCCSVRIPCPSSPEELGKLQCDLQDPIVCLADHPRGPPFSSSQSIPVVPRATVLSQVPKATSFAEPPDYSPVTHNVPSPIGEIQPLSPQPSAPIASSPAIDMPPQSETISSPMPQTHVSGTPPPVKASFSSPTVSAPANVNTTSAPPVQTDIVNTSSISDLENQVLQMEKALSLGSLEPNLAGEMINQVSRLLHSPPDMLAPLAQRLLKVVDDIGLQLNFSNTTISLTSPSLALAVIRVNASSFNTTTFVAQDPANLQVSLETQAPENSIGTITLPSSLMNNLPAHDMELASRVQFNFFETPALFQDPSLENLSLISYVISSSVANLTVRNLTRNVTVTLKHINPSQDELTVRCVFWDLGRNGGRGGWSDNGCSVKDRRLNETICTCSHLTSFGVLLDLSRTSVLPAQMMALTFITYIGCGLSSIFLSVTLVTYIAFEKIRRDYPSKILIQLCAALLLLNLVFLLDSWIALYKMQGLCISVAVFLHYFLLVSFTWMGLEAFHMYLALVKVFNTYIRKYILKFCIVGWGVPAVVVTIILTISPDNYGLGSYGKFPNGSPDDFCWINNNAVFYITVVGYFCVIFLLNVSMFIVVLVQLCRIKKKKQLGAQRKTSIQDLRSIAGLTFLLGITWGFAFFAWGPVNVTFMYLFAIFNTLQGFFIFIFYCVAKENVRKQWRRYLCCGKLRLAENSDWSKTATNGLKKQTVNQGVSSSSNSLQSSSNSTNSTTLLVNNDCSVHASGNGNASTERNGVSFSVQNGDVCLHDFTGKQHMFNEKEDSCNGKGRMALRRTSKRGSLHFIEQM

[3] = target: T3, human GPR64-Fc fusion protein (human, UniProt Q8IZP9 38-591); test: affinity screen of Example 4 (Biacore/FACS); form of the target not restated
T3 construct: Immunogen, and the analyte in the Biacore kinetics

binding result [1]: binds
EC50 [2]: ~4 nM
binding result [3]: binds
B1: GPR64-18 (antibody, V domains shown)
VH: QVSLKESGPGILQPSQTLSLTCSFSGFSLSTSGMGVSWIRQPSGKGLEWLAHIYWDDDKRYNPSLKSRLTISKDTSSNLVFLKITSVDTADTATYYCARREVRRDYYAMDYWGQGTSVTVSS
VL: SIVMTQTPKFLLVSAGDRITIACRASQSVSNDVAWYQQKPGQSPKLLINYTSNRYTGVPDRFTGSGYGTDFTFTISTVQAEDLAVYFCQQAYSSPWTFGGGTKLEIK
notes: Mouse monoclonal antibody raised against GPR64-Fc; also called GPR64-18 antibody
